Reference: US20220025003A1, “REAGENTS AND METHODS FOR CONTROLLING PROTEIN FUNCTION AND INTERACTION” (University of Washington, priority 2018, published 2022)
Numbering of substitutions follows the chain as printed. Values joined by “and” are separate entries in the source; they are usually repeats but may differ in a detail not shown here. Equal values may be shown once.

Columns and labels:
NS3a/asunaprevir complex = target: T1, NS3a/asunaprevir complex (Hepatitis C virus genotype 1a, UniProt P27958, C1073S/C1078L/C1185S/I1043Q/I1044E/I1098T/L1039E/L1040E/L1047Q/L1179I/N1200S/P1112Q/Q1106K/T1100M/T1173A); assay: Yeast surface display binding and titration; set-up: key to relative binding: +: Relative binding of different NS3a/inhibitor complexes is given for conditions where binding was too weak to achieve full titration curves on yeast, indicating binding in the low-to-mid micromolar-range, or weaker.; ++: Relative binding of different NS3a/inhibitor complexes is given for conditions where binding was too weak to achieve full titration curves on yeast, indicating binding in the low-to-mid micromolar-range, or weaker.; +++: Relative binding of different NS3a/inhibitor complexes is given for conditions where binding was too weak to achieve full titration curves on yeast, indicating binding in the low-to-mid micromolar-range, or weaker; conditions: for relative binding / Kd: yeast-displayed design, NS3a/asunaprevir complex; for Kd: apparent, read-out: KD (nM) ± standard deviation
T1 construct: made in house; host or cells: E. coli BL21 (DE3), pDW363 with BirA
Text: (§1) ; these sorts are denoted as “avid” below. […] See FIG. 30a for yeast gating strategies.
(§2) […]. Curves were fit using Graphpad Prism 5 to a one-site specific binding model with Hill coefficient.

NS3a/danoprevir complex = target: T2, NS3a/danoprevir complex (Hepatitis C virus genotype 1a, UniProt P27958, C1073S/C1078L/C1185S/I1043Q/I1044E/I1098T/L1039E/L1040E/L1047Q/L1179I/N1200S/P1112Q/Q1106K/T1100M/T1173A); assay: Yeast surface display binding and titration; set-up: key to relative binding: +: Relative binding of different NS3a/inhibitor complexes is given for conditions where binding was too weak to achieve full titration curves on yeast, indicating binding in the low-to-mid micromolar-range, or weaker.; ++: Relative binding of different NS3a/inhibitor complexes is given for conditions where binding was too weak to achieve full titration curves on yeast, indicating binding in the low-to-mid micromolar-range, or weaker.; +++: Relative binding of different NS3a/inhibitor complexes is given for conditions where binding was too weak to achieve full titration curves on yeast, indicating binding in the low-to-mid micromolar-range, or weaker; conditions: for binding to NS3a/danoprevir complex: yeast surface display; for relative binding / Kd: yeast-displayed design, NS3a/danoprevir complex; for Kd: apparent, read-out: KD (nM) ± standard deviation; for Fold drug specificity: grazoprevir/NS3a over danoprevir/NS3a
T2 construct: made in house; host or cells: E. coli BL21 (DE3), pDW363 with BirA
Text: as §1, §2

NS3a/grazoprevir complex = target: T3, NS3a/grazoprevir complex (Hepatitis C virus genotype 1a, UniProt P27958, C1073S/C1078L/C1185S/I1043Q/I1044E/I1098T/L1039E/L1040E/L1047Q/L1179I/N1200S/P1112Q/Q1106K/T1100M/T1173A); assay: Yeast surface display binding and titration; set-up: key to relative binding: +: Relative binding of different NS3a/inhibitor complexes is given for conditions where binding was too weak to achieve full titration curves on yeast, indicating binding in the low-to-mid micromolar-range, or weaker.; ++: Relative binding of different NS3a/inhibitor complexes is given for conditions where binding was too weak to achieve full titration curves on yeast, indicating binding in the low-to-mid micromolar-range, or weaker.; +++: Relative binding of different NS3a/inhibitor complexes is given for conditions where binding was too weak to achieve full titration curves on yeast, indicating binding in the low-to-mid micromolar-range, or weaker; conditions: for Fold drug specificity: danoprevir/NS3a over grazoprevir/NS3a; for relative binding / Kd: yeast-displayed design, NS3a/grazoprevir complex; for Kd: apparent, read-out: KD (nM) ± standard deviation
T3 construct: made in house; host or cells: E. coli BL21 (DE3), pDW363 with BirA
Text: as §1, §2

NS3a in NIH3T3 cells [1] = assay: Confocal microscopy for colocalization analysis (fixed cells); format: cell-based; conditions: 10 μM drug, 1 h
Description: A Leica SP8× system was used for confocal microscopy. […] TagBFP emission was recorded on a PMT detector, and EGFP and mCherry™ were detected by separate HyD™ detectors.
Colocalization experiments were performed in NIH3T3 cells (Flp-In-3T3, Thermo Fisher Scientific). For fixed-cell experiments, cells were plated at 3×10^4 cells/mL on sterile glass coverslides placed in 12-well culture plates. […] One day after transfection, cells were treated with drug or DMSO and fixed. Drug additions were performed by exchanging the media for DMEM+10% v/v FBS plus drug. To fix, cells were washed once with DPBS (Thermo Fisher Scientific), then incubated with 4% v/v paraformaldehyde in DPBS for 15 minutes. After washing twice with DPBS, coverslides with cells were removed from the plate and mounted on glass slides using Fluoromount-G (SouthernBiotech).
Colocalization of NS3a and DNCR1 at the plasma membrane, nucleus, mitochondria and Golgi was performed with two sets of constructs, with either NS3a or DNCR1 as the immobilized component. mCherry™-NS3a was used with Tom20-DNCR1-EGFP, DNCR1-EGFP-Giantin, and 3×NLS-DNCR1-EGFP. […] Colocalization was analyzed after 1 h of 10 μM drug or equal volume DMSO treatment.
All images were analyzed using ImageJ. […] EGFP fluorescence was quantified in the ROI over the timecourse. […] The cytoplasmic fluorescence was normalized to the value in the first and last frame for each cell. […]

NS3a in NIH3T3 cells [2] = assay: as above; format: cell-based; conditions: 5 μM drug, 15 min
apo NS3a = target: T4, apo NS3a (Hepatitis C virus genotype 1a, UniProt P27958, C1073S/C1078L/C1185S/I1043Q/I1044E/I1098T/L1039E/L1040E/L1047Q/L1179I/N1200S/P1112Q/Q1106K/T1100M/T1173A); assay: Yeast surface display binding
T4 construct: made in house; host or cells: E. coli BL21 (DE3), pDW363 with BirA
Text: as §1, §2

[3] = system: PI3K-Akt signaling in COS-7 cells; assay: AKT Western blots; format: cell-based; conditions: DNCR2 fused to inter-SH2 domain of p85, danoprevir
Description: COS-7 cells (ATCC), were plated in 24-well plates at 2×10^5 cells/mL (0.5 mL volume). […] One day after transfection, cells were washed once with DPBS, and media was replaced with serum-free DMEM. After serum-starving for 22 hours, cells were exposed to a 15-min drug treatment using 12, 3-fold dilutions of danoprevir from 5 μM to 0 μM, in triplicate. After drug treatment, cells were washed once in DPBS, then lysed in 50 μL modified RIPA buffer (50 mM Tris-HCl, pH 7.8, 1% v/v IGEPAL CA-630, 150 mM NaCl, 1 mM EDTA, 1× Pierce Protease Inhibitor Tablet) for 30 minutes on ice. Cell debris was cleared by centrifugation at […] for 10 min at 4° C. Lysate was mixed with protein loading dye and denatured at 95° C. for 7 minutes then run on an SDS-PAGE gel (Criterion, Bio-Rad) and transferred to nitrocellulose. Blocking and primary antibody incubations were done in a 1:1 mix of TBS plus 0.1% v/v Tween-20 (TBST) and blocking buffer (Odyssey). Primary antibodies used were pSER473 AKT (1:2000, Cell Signaling Technologies #4060), and pan-AKT (1:2000, Cell Signaling Technologies #2920). […]

[4] = 100 μM free drug unable to disrupt DNCR2/danoprevir/NS3a complex on yeast
[5] = danoprevir/NS3a over asunaprevir/NS3a
[6] = grazoprevir/NS3a over asunaprevir/NS3a

B1: D5: computational design on DHR79 scaffold binding danoprevir/NS3a complex, SEQ ID NO: 10 (protein)
chain: SSDEEEARELIERAKEAAERAQEAAERTGDPRVRELARELKRLAQEAAEEVKRDPSSSDVNEALKLIVEAIEAAVDALEAAERTGDPEVRELARELVRLAVEAAEEVQRNPSSSDVNEALLTIVIAIEAAVNALEAAERTGDPEVRELARELVRLAVEAAEEVQRNPSSREVNIALWKIVLAIQEAVESLREAEESGDPEKREKARERVREAVERAEEVQRDPSGWLNH
NS3a/asunaprevir complex; [5]
  Fold drug specificity: modest
NS3a/asunaprevir complex
  relative binding: +
NS3a/danoprevir complex
  binding to NS3a/danoprevir complex: modest, drug-dependent binding
  relative binding: ++
NS3a/grazoprevir complex
  Fold drug specificity: none
  relative binding: +++

B2: DNCR1: danoprevir/NS3a complex reader 1, intermediate-affinity variant, SEQ ID NO: 9 (protein)
chain: B1 chain with T122S, N132H, N173E, I174H, W177M, Q184Y, V187E
NS3a/asunaprevir complex
  Kd: 6300 ± 2600 nM
NS3a/asunaprevir complex; [5]
  Fold drug specificity: 33 fold
NS3a/danoprevir complex
  Kd: 190 ± 10 nM
  binding to NS3a/danoprevir complex: high nanomolar affinity
NS3a/grazoprevir complex
  Kd: 2900 ± 100 nM
  Fold drug specificity: 15 fold
NS3a in NIH3T3 cells [1]
  Colocalization of DNCR1-EGFP and NS3a-mCherry: functional binding specificity for the danoprevir/NS3a complex

B3: ANR—BFP-CAAX: plasma membrane-targeted ANR-BFP fusion (protein)
chain: MGELDELVYLLDGPGYDPIHSDGSGTGSGTGSGTGTTSGTGTGGSTGGELDELVYLLDGPGYDPIHSDGSGTGSGTGSGTGTTSGTGTGGSTGEQKLISEEDLGSGSSELIKENMHMKLYMEGTVDNHHFKCTSEGEGKPYEGTQTMRIKVVEGGPLPFAFDILATSFLYGSKTFINHTQGIPDFFKQSFPEGFTWERVTTYEDGGVLTATQDTSLQDGCLIYNVKIRGVNFTSNGPVMQKKTLGWEAFTETLYPADGGLEGRNDMALKLVGGSHLIANIKTTYRSKKPAKNLKMPGVYYVDYRLERIKEANNETYVEQHEVAVARYCDLPSKLGHKLNRKHKEKMSKDGKKKKKKSKTKCVIM
NS3a in NIH3T3 cells [2]
  Colocalization of NS3a-mCherry with ANR-BFP-CAAX or NLS-DNCR2-EGFP: pre-localized NS3a-mCherry™ to the plasma membrane

B4: DNCR2: danoprevir/NS3a complex reader, final variant with 14 mutations from D5, SEQ ID NO: 8 (protein)
chain: SSDEEEARELIERAKEAAERAQEAAERTGDPRVRELARELKRLAQEAAEEVKRDPSSSDVNEALKLIVEAIEAAVDALEAAERTGDPEVRELARELVRLAVEAAEEVQRNPSSSDVNEALHSIVYAIEAAIFALEAAERTGDPEVRELARELVRLAVEAAEEVQRNPSSRNVEHALMRIVLAIYLAEENLREAEESGDPEKREKARERVREAVERAEEVQRDPSGWLNH
NS3a/asunaprevir complex
  Kd: 770 ± 50 nM
NS3a/asunaprevir complex; [5]
  Fold drug specificity: 21,000 fold
NS3a/danoprevir complex
  specificity over NS3a bound to the drugs grazoprevir or asunaprevir: > 20,000 fold
  Kd: 0.036 ± 0.0002 nM
NS3a/grazoprevir complex
  Kd: 2000 ± 100 nM
  Fold drug specificity: 56,000 fold
Apo NS3a
  binding to apo NS3a: no detectable binding
[3]
  PI3K-Akt signaling activation: capable of activating PI3K-Akt signaling
[4]
  binding to danoprevir alone: does not appear to bind substantially to danoprevir alone

B5: G3: computational design on DHR18 scaffold binding grazoprevir/NS3a complex, SEQ ID NO: 12 (protein)
chain: DIEKLCKKAEEEAKEAQEKADELRQRHPDSQAAEDAEDLANEAEAAVLAACSLAQEHPNADIAKLCIKAASEAAEAASKAAELAQRHPDSQAARDAIKLASQAARAVILAIMLAAENPNADIAKLCIKAASEAAEAASKAAELAQRHPDSQAARDAIKLASQAAEAVERAIWLAAENPNADIAKKCIKAASEAAEEASKAAEEAQRHPDSQKARDEIKEASQKAEEVKERCKS
NS3a/asunaprevir complex; [6]
  Fold drug specificity: modest
NS3a/asunaprevir complex
  relative binding: +
NS3a/danoprevir complex
  Fold drug specificity: high
  relative binding: no binding
NS3a/grazoprevir complex; yeast surface display
  binding to NS3a/grazoprevir complex: modest, grazoprevir-dependent binding
  specificity for binding grazoprevir/NS3a over NS3a with danoprevir or asunaprevir, or apo NS3a: high specificity
NS3a/grazoprevir complex
  relative binding: ++

B6: GNCR1: grazoprevir/NS3a complex reader 1, 4 mutations from G3, SEQ ID NO: 11 (protein)
chain: B5 chain with E42L, E44V, A49T, S52L
NS3a/asunaprevir complex
  Kd: > 10000 nM
NS3a/asunaprevir complex; [6]
  Fold drug specificity: >71 fold
NS3a/asunaprevir complex; yeast surface display
  binding to asunaprevir-bound NS3a: little-to-no affinity
NS3a/danoprevir complex
  Kd: > 10000 nM
  Fold drug specificity: >71 fold
  binding to NS3a/danoprevir complex: little-to-no affinity
NS3a/grazoprevir complex
  Kd: 140 nM and < 200 nM
NS3a/grazoprevir complex; yeast surface display
  specificity for binding grazoprevir/NS3a over NS3a with danoprevir or asunaprevir, or apo NS3a: high specificity
Apo NS3a
  binding to apo NS3a: little-to-no affinity
